From the Immune Epitope Database (IEDB)

How the values were obtained:
HLA-A*02:01 = assay: IEDB peptide-MHC binding, purified MHC/direct/fluorescence; filed as Kd, often an IC50 or EC50 that approximates it; ≥ and ≤ were set here for values at or beyond the usual limits of such assays; settings: source organism: Escherichia coli O157:H7
HLA-A*01:01 = assay: as above; settings: source organism: Escherichia coli O157:H7
HLA-B*27:05 = assay: as above; settings: source organism: Escherichia coli O157:H7
HLA-B*07:02 = assay: as above; settings: source organism: Escherichia coli O157:H7
HLA-B*40:01 = assay: as above; settings: source organism: Escherichia coli O157:H7
HLA-B*18:01 = assay: as above; settings: source organism: Escherichia coli O157:H7
HLA-A*69:01 = assay: as above; settings: source organism: Escherichia coli O157:H7
HLA-B*15:17 = assay: as above; settings: source organism: Escherichia coli O157:H7
HLA-A*03:01 = assay: as above; settings: source organism: Escherichia coli O157:H7
HLA-B*48:01 = assay: as above; settings: source organism: Escherichia coli O157:H7
HLA-B*57:01 = assay: as above; settings: source organism: Escherichia coli O157:H7
HLA-A*11:01 = assay: as above; settings: source organism: Escherichia coli O157:H7
HLA-B*58:01 = assay: as above; settings: source organism: Escherichia coli O157:H7
HLA-A*31:01 = assay: as above; settings: source organism: Escherichia coli O157:H7
HLA-B*15:01 = assay: as above; settings: source organism: Escherichia coli O157:H7
HLA-A*68:02 = assay: as above; settings: source organism: Escherichia coli O157:H7
HLA-B*40:13 = assay: IEDB peptide-MHC binding, purified MHC/competitive/fluorescence; filed as Kd, often an IC50 or EC50 that approximates it; ≥ and ≤ were set here for values at or beyond the usual limits of such assays; settings: source organism: Escherichia coli O139:H28 str. E24377A
HLA-B*45:06 = assay: as above; settings: source organism: Escherichia coli O139:H28 str. E24377A
HLA-A*32:07 = assay: as above; settings: source organism: Escherichia coli O139:H28 str. E24377A
HLA-B*83:01 = assay: as above; settings: source organism: Escherichia coli O139:H28 str. E24377A
HLA-B*15:42 = assay: as above; settings: source organism: Escherichia coli O139:H28 str. E24377A
HLA-B*39:01 = assay: as above; settings: source organism: Escherichia coli O139:H28 str. E24377A

Kd (HLA-A*02:01): ≥ 20000 nM
Kd (HLA-A*01:01): ≥ 20000 nM
Kd (HLA-B*27:05): 590 nM
Kd (HLA-B*07:02): ≥ 20000 nM
Kd (HLA-B*40:01): ≤ 1 nM
Kd (HLA-B*18:01): ≤ 1 nM
Kd (HLA-A*69:01): ≥ 20000 nM
Kd (HLA-B*15:17): ≥ 20000 nM
Kd (HLA-A*03:01): ≥ 20000 nM
Kd (HLA-B*48:01): 149 nM
Kd (HLA-B*57:01): ≥ 20000 nM
Kd (HLA-A*11:01): ≥ 20000 nM
Kd (HLA-B*58:01): ≥ 20000 nM
Kd (HLA-A*31:01): ≥ 20000 nM
Kd (HLA-B*15:01): 45 nM
Kd (HLA-A*68:02): ≥ 20000 nM
Kd (HLA-B*40:13): 61.1 nM
Kd (HLA-B*45:06): ≥ 5000 nM
Kd (HLA-A*32:07): 13.5 nM
Kd (HLA-B*83:01): ≥ 5000 nM
Kd (HLA-B*15:42): ≥ 5000 nM
Kd (HLA-B*39:01): 135 nM
Sequence: REWGWRIPF
